The results in this text go back to patent publication US20140274782A1, “AFFINITY REAGENTS AND METHODS FOR DETECTION, PURIFICATION, AND PROTEOMIC ANALYSIS OF METHYLATED PROTEINS” (The Board of Trustees of the Leland Stanford Junior …, priority 2013, published 2014).

One experiment deals with 3×MBT domain of L3MBTL1. Nature of the experiment: Triple SILAC pull-down, 3xMBT/3xMBTD355N ratio (cytoplasmic, nuclear and chromatin fractions of 293T cells).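 On all read-outs here: proteins quantified with MaxQuant, requiring at least two unique peptides and quantification in both label directions, normalized to the mean of proteins from a digested loading control.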 Type of experiment: binding, human. The settings on record: SILAC ratio, pull-down 3xMBT vs 3xMBTD355N; for 3xMBT/D355N UNC Heavy: experiment with UNC0638 in heavy SILAC media; for 3xMBT/D355N UNC Light: experiment with UNC0638 in light SILAC media.

Another experiment concerns the target T1, G9a and GLP (Homo sapiens, UniProt Q96KQ7+Q9H9B1).
T1 sequence (Q96KQ7 2-1210 limits assumed): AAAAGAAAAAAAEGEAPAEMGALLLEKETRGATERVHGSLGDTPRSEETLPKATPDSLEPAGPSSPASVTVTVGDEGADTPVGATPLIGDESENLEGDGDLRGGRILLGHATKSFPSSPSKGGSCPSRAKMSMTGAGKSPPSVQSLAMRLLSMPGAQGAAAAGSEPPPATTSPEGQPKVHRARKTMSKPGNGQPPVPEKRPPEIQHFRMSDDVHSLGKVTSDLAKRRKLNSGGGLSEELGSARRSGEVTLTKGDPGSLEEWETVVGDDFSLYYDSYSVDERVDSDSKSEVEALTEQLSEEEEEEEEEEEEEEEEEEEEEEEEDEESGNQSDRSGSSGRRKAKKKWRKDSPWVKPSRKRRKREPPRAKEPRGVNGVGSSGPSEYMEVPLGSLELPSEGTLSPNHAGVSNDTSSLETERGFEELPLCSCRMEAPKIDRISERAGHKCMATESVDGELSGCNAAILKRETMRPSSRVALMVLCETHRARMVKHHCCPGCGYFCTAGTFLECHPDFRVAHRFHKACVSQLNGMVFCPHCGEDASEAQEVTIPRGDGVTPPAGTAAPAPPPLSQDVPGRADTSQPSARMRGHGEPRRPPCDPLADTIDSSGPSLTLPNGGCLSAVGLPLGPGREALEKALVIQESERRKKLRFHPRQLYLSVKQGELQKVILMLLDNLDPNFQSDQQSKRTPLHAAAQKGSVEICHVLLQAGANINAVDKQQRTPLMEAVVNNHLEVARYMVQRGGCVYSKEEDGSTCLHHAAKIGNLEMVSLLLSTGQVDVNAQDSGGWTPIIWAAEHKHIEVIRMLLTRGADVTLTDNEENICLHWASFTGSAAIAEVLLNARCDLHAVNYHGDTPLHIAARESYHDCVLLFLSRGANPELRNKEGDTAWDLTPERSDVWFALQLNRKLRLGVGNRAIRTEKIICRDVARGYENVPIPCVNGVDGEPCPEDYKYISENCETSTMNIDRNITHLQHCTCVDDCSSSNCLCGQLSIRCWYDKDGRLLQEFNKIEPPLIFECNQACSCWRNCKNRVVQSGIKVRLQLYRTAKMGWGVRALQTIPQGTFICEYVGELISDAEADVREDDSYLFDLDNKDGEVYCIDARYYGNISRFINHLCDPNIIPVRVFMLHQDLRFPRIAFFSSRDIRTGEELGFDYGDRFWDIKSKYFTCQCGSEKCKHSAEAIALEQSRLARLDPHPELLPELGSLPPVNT
T1 sequence (Q9H9B1 2-1298 limits assumed): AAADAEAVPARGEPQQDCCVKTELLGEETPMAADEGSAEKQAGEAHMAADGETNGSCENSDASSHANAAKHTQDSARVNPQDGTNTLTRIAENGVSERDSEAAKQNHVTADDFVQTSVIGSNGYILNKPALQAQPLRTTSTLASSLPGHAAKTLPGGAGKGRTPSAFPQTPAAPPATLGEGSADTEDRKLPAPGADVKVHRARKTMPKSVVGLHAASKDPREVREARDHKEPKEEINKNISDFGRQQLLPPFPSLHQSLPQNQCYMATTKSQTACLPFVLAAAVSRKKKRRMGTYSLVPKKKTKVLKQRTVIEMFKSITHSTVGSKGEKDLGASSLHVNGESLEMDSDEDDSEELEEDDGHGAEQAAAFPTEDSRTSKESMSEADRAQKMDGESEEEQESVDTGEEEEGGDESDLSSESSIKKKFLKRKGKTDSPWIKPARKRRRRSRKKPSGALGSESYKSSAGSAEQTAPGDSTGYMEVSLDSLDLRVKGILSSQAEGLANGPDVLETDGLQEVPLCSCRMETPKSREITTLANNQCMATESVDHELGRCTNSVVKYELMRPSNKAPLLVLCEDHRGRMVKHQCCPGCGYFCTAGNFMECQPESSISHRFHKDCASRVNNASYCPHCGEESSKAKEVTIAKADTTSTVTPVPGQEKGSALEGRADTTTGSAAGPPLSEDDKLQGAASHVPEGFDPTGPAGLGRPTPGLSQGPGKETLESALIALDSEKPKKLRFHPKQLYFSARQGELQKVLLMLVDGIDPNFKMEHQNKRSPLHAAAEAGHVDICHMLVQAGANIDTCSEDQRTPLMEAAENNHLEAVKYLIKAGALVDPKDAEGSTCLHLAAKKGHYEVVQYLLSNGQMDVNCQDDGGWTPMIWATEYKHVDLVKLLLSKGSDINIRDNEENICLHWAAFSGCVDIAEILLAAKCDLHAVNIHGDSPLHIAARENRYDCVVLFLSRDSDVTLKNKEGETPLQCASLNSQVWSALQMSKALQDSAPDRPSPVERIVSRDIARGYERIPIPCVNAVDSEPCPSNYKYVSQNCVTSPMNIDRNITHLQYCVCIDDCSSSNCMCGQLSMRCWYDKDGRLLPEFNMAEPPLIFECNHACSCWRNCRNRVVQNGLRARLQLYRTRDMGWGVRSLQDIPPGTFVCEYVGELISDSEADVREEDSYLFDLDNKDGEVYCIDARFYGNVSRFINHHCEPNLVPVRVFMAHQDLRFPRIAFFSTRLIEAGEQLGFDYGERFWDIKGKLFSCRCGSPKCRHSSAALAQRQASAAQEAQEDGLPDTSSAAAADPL
The experiment can be described thus: Triple SILAC pull-down after UNC0638 treatment of 293T cells, DMSO/UNC0638 ratio of protein captured by 3×MBT.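 On all read-outs here: mass spectrometry (Q-Exactive) SILAC quantitation, DMSO/UNC0638 ratio computed after subtracting 3×MBTD355N mutant pull-down background, only proteins with at least twofold 3×MBT over mutant signal considered.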 Also noted: endogenous in cells; host or cells: HEK 293T. The settings on record: for Relative to UNC0638 UNC Heavy / Relative to UNC0638 UNC Light: SILAC ratio DMSO/UNC0638 of protein pulled down with 3xMBT; for Relative to UNC0638 UNC Heavy: UNC0638 in heavy SILAC media; for Relative to UNC0638 UNC Light: UNC0638 in light SILAC media; for Relative to UNC0638 Average: average of UNC Light and UNC Heavy experiments. Format: cell-based.

B1: RBM26 (protein, UniProt Q5T8P6 1-1007, looked up)
RNA-binding protein 26: MVSKMIIENFEALKSWLSKTLEPICDADPSALAKYVLALVKKDKSEKELKALCIDQLDVFLQKETQIFVEKLFDAVNTKSYLPPPEQPSSGSLKVEFFPHQEKDIKKEEITKEEEREKKFSRRLNHSPPQSSSRYRENRSRDERKKDDRSRKRDYDRNPPRRDSYRDRYNRRRGRSRSYSRSRSRSWSKERLRERDRDRSRTRSRSRTRSRERDLVKPKYDLDRTDPLENNYTPVSSVPSISSGHYPVPTLSSTITVIAPTHHGNNTTESWSEFHEDQVDHNSYVRPPMPKKRCRDYDEKGFCMRGDMCPFDHGSDPVVVEDVNLPGMLPFPAQPPVVEGPPPPGLPPPPPILTPPPVNLRPPVPPPGPLPPSLPPVTGPPPPLPPLQPSGMDAPPNSATSSVPTVVTTGIHHQPPPAPPSLFTADTYDTDGYNPEAPSITNTSRPMYRHRVHAQRPNLIGLTSGDMDLPPREKPPNKSSMRIVVDSESRKRTIGSGEPGVPTKKTWFDKPNFNRTNSPGFQKKVQFGNENTKLELRKVPPELNNISKLNEHFSRFGTLVNLQVAYNGDPEGALIQFATYEEAKKAISSTEAVLNNRFIKVYWHREGSTQQLQTTSPKVMQPLVQQPILPVVKQSVKERLGPVPSSTIEPAEAQSASSDLPQNVTKLSVKDRLGFVSKPSVSATEKVLSTSTGLTKTVYNPAALKAAQKTLLVSTSAVDNNEAQKKKQEALKLQQDVRKRKQEILEKHIETQKMLISKLEKNKTMKSEDKAEIMKTLEVLTKNITKLKDEVKAASPGRCLPKSIKTKTQMQKELLDTELDLYKKMQAGEEVTELRRKYTELQLEAAKRGILSSGRGRGIHSRGRGAVHGRGRGRGRGRGVPGHAVVDHRPRALEISAFTESDREDLLPHFAQYGEIEDCQIDDSSLHAVITFKTRAEAEAAAVHGARFKGQDLKLAWNKPVTNISAVETEEVEPDEEEFQEESLVDDSLLQDDDEEEEDNESRSWRR
Take B1: in the experiment with 3×MBT domain of L3MBTL1, the “3xMBT/D355N UNC Heavy” value was 2.44 log base 2 and the “3xMBT/D355N UNC Light” value came to 2.00 log base 2. Also, in the experiment with G9a and GLP, the “Relative to UNC0638 UNC Heavy” value came out at 0.21 log base 2, the “Relative to UNC0638 UNC Light” value stood at 0.08 log base 2 and the “Relative to UNC0638 Average” value is given as 0.14 log base 2.

B2: DCAF7 (protein, UniProt P61962 1-342, looked up)
DDB1- and CUL4-associated …: MSLHGKRKEIYKYEAPWTVYAMNWSVRPDKRFRLALGSFVEEYNNKVQLVGLDEESSEFICRNTFDHPYPTTKLMWIPDTKGVYPDLLATSGDYLRVWRVGETETRLECLLNNNKNSDFCAPLTSFDWNEVDPYLLGTSSIDTTCTIWGLETGQVLGRVNLVSGHVKTQLIAHDKEVYDIAFSRAGGGRDMFASVGADGSVRMFDLRHLEHSTIIYEDPQHHPLLRLCWNKQDPNYLATMAMDGMEVVILDVRVPCTPVARLNNHRACVNGIAWAPHSSCHICTAADDHQALIWDIQQMPRAIEDPILAYTAEGEINNVQWASTQPDWIAICYNNCLEILRV
Turning to B2, in the experiment with 3×MBT domain of L3MBTL1, the “3xMBT/D355N UNC Heavy” value was 1.67 log base 2 and the “3xMBT/D355N UNC Light” value is recorded as 1.31 log base 2. In the experiment with G9a and GLP, the “Relative to UNC0638 UNC Heavy” value is on record as 0.69 log base 2, the “Relative to UNC0638 UNC Light” value is 0.48 log base 2 and the “Relative to UNC0638 Average” value came to 0.59 log base 2. In addition, the “Candidate G9a/GLP target” value in the experiment with G9a and GLP (reduced association with 3xMBT after UNC0638 treatment) is reported as “✓”.

B3: U2AF1 (protein, UniProt Q01081 2-240, looked up)
Splicing factor U2AF 35 kDa …: AEYLASIFGTEKDKVNCSFYFKIGACRHGDRCSRLHNKPTFSQTIALLNIYRNPQNSSQSADGLRCAVSDVEMQEHYDEFFEEVFTEMEEKYGEVEEMNVCDNLGDHLVGNVYVKFRREEDAEKAVIDLNNRWFNGQPIHAELSPVTDFREACCRQYEMGECTRGGFCNFMHLKPISRELRRELYGRRRKKHRSRSRSRERRSRSRDRGRGGGGGGGGGGGGRERDRRRSRDRERSGRF
B3: in the experiment on 3×MBT domain of L3MBTL1, the “3xMBT/D355N UNC Heavy” value turned out to be 3.19 log base 2 and the “3xMBT/D355N UNC Light” value is 2.52 log base 2. For the same molecule, in the experiment with G9a and GLP, the “Relative to UNC0638 UNC Heavy” value is 0.20 log base 2, the “Relative to UNC0638 UNC Light” value was found to be 0.08 log base 2 and the “Relative to UNC0638 Average” value was determined as 0.14 log base 2.

B4: DENR (protein, UniProt O43583 2-198, looked up)
Density-regulated protein: AADISESSGADCKGDPRNSAKLDADYPLRVLYCGVCSLPTEYCEYMPDVAKCRQWLEKNFPNEFAKLTVENSPKQEAGISEGQGTAGEEEEKKKQKRGGRGQIKQKKKTVPQKVTIAKIPRAKKKYVTRVCGLATFEIDLKEAQRFFAQKFSCGASVTGEDEIIIQGDFTDDIIDVIQEKWPEVDDDSIEDLGEVKK
As for B4, in the experiment on 3×MBT domain of L3MBTL1, the “3xMBT/D355N UNC Heavy” value was 2.50 log base 2 and the “3xMBT/D355N UNC Light” value was determined as 3.36 log base 2. Also, in the experiment with G9a and GLP, the “Relative to UNC0638 UNC Heavy” value was found to be 0.09 log base 2, the “Relative to UNC0638 UNC Light” value is given as 0.20 log base 2 and the “Relative to UNC0638 Average” value amounted to 0.14 log base 2.
